pKd: −log10 of the molar value.
Key:
[1] = molecular target: HIV-1 integrase with methionine preceding the N-terminal phenylalanine (IN MF), full-length (HIV-1 (NL4-3)); assay: SEC-MALS; Superdex 200 10/300, 25 °C, 20 mM HEPES-NaOH pH 7.5, 500 mM-1 M NaCl, 7 mM CHAPS, 10 µM ZnOAc2, 10 µM β-mercaptoethanol; eluted concentrations ~8-10 µM (IN 1F, IN MF); self-association
[2] = molecular target: HIV-1 integrase with methionine preceding the N-terminal phenylalanine (IN MF), full-length (HIV-1 (NL4-3)); assay: AUC; sedimentation equilibrium, 4 °C, same data and buffer as the monomer-dimer fit; attempted fit of a dimer-tetramer equilibrium: tetramer to dimers
[3] = molecular target: HIV-1 integrase with methionine preceding the N-terminal phenylalanine (IN MF), full-length (HIV-1 (NL4-3)); assay: AUC; sedimentation velocity, 25 °C, 40,000 rpm, 20 mM HEPES-NaOH pH 7.5, 1 M NaCl, 7 mM CHAPS, 10 µM ZnOAc2, 10 µM β-mercaptoethanol; c(s) model in SEDFIT; self-association
[4] = molecular target: HIV-1 integrase with methionine preceding the N-terminal phenylalanine (IN MF), full-length (HIV-1 (NL4-3)); assay: AUC; sedimentation equilibrium, 4 °C, 20 mM HEPES-NaOH pH 7.5, 1 M NaCl, 7 mM CHAPS, 10 µM ZnOAc2, 10 µM β-mercaptoethanol; global fit at 16, 20, 24 krpm (SEDPHAT); dimer to monomers

**Q.** “HIV-1 integrase with methionine preceding the N-terminal phenylalanine (IN MF), full-length (enzyme)” was tested. Which stoichiometry N [1] did it give?
**A.** 2

**Q.** What about the pKd [2] of the same substance?
**A.** < 3.00

**Q.** What about the stoichiometry N [3] of the same substance?
**A.** 2

**Q.** What about the pKd [4] of the same substance?
**A.** 3.90
